B1: IGFBP-2: Purified rat Insulin-like Growth Factor Binding Protein 2 (protein, UniProt P12843 35-304, looked up)
Insulin-like growth …: EVLFRCPPCTPERLAACGPPPDAPCAELVREPGCGCCSVCARQEGEACGVYIPRCAQTLRCYPNPGSELPLKALVTGAGTCEKRRVGATPQQVADSEDDHSEGGLVENHVDGTMNMLGGSSAGRKPPKSGMKELAVFREKVNEQHRQMGKGAKHLSLEEPKKLRPPPARTPCQQELDQVLERISTMRLPDDRGPLEHLYSLHIPNCDKHGLYNLKQCKMSLNGQRGECWCVNPNTGKPIQGAPTIRGDPECHLFYNEQQENDGAHAQRVQ
B2: IGFBP-1: Purified rat Insulin-like Growth Factor Binding Protein 1 (protein, UniProt P21743 26-272, looked up)
Insulin-like growth …: APQPWHCAPCTAERLELCPPVPASCPEISRPAGCGCCPTCALPLGAACGVATARCAQGLSCRALPGEPRPLHALTRGQGACVLEPAAPATSSLSGSQHEEAKAAVASEDELAESPEMTEEQLLDSFHLMAPSREDQPILWNAISTYSSMRAREITDLKKWKEPCQRELYKVLERLAAAQQKAGDEIYKFYLPNCNKNGFYHSKQCETSLDGEAGLCWCVYPWSGKKIPGSLETRGDPNCHQYFNVQN

Tested on: TGF-β1 activation
Assay: Macrophage activation assay (IC-21 macrophages, LPS, fetal fibroblast conditioned media, ELISA)
Assay type: cell-based, mouse
Procedure: Cultured macrophages were lifted from the dish with 3 ml of PBS. The PBS was balanced with 15 ml of RPMI-1640 containing 10% FBS. The cells were counted and then seeded in 100 mm plates at 1×10^6 cells/dish. When the cultured macrophages reached approximately 70% confluency (2-3 days) they were washed with PBS and RPMI-1640 medium containing 5% FBS and 10 ng/ml LPS was applied (FIG. 1). After 24 h of activation with LPS the cells were washed gently with PBS. At this point conditioned medium from confluent fetal dermal fibroblasts was collected and 5 ml was distributed into each dish containing macrophages. The cells were incubated for an additional 24 h, the media were collected, spun down at 600×g for 10 min and stored at 4° C. before TGF-β1 evaluation by ELISA. Each condition was done in duplicate. The cells, washed with PBS, were harvested for total RNA extraction.
Fetal dermal fibroblasts were seeded in 100 mm dishes at 1×10^6 cell/dish. The cells were grown to confluency (2-3 days). The cultures were washed with PBS and fresh medium, either DMEM supplemented with 10% FBS or AIM-V medium (a serum free medium) for serum-free conditions, was applied for 24 h (FIG. 1). The medium was collected and combined in order to obtain a homogenous pool of latent TGF-β1. The collection of the medium was done just prior to application in the macrophage assay. […]

Molecule	effect on IGF-II-mediated inhibition of TGF-β1 activation, in words
B1	no effect on IGF-II action
B2	able to reverse this inhibition

Source: patent publication US6750028B1, “Anti-fibrotic agent assay” (Ethicon, Inc, priority 1996, dated 2004)
